Changes are numbered by the printed parent chain. One block for each binder: values may come before it.
Legend:
human CD70 = biological target: T1, human CD70 (human, UniProt P32970 1-193); assay: FACS on CHO cells, periplasmic scFv
T1 construct: also called hu CD70; CD27L
T1 sequence: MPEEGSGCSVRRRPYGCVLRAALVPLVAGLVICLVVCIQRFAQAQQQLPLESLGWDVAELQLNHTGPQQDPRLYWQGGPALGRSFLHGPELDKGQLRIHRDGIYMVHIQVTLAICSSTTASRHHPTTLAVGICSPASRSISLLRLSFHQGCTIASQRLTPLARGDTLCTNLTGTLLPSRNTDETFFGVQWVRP
Procedure: (§1) All antibodies were diluted in PBS/1.5% FCS. As negative control, cells were incubated with PBS/2% FCS instead of the periplasmic extract. The samples were measured by flow cytometry.

[1] = biological target: T2, full-length mouse CD70 with C-terminal V5 tag (mouse, UniProt O55237 1-195); assay: FACS on CHO cells, periplasmic scFv
T2 construct: On transfected CHO cells; also called murine CD70
T2 sequence: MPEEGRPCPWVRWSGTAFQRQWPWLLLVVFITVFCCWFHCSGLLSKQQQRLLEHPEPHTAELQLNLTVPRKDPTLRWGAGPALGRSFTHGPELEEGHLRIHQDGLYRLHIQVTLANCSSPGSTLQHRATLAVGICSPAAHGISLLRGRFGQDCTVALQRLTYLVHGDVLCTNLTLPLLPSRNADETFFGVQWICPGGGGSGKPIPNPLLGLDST
Procedure: as §1

binding result (human CD70): binds
binding result [1]: no binding
B1: CD70-33 (scFv)
scFv: EVQLLESGGGLVQPGGSLRLSCAASGFTFSTYAMSWVRQAPGKGLEWVSTISDSGGSTFYADSVMGRFTISRDNSKNTLYLQMNSLRAEDTAVYYCARHDYSNYAFFDYWGQGTLVTVSSGGGGSGGGGSGGGGSEIVLTQSPATLSVSPGERATLSCRASQSVSSNLAWYQQKPGQAPRLLIYGASSRATGIPDRFSGSGSGTDFTLTISSLQAEDVAVYYCQQYYSTPFTFGPGTKVEIK
notes: As m32

binding result (human CD70): binds
binding result [1]: no binding
B2: CD70-34 (scFv)
scFv: B1 scFv with S188T, D195A, D205E, T209A, S212R, Q214E, A215P, V218F, P235G
notes: As m32

binding result (human CD70): binds
binding result [1]: no binding
B3: CD70-20 (scFv)
scFv: EVQLLESGGGLVQPGGSLRLSCAASGFTFSTYAMSWVRQAPGKGLEWVSLISGSGGRTYYADSVKGRFTISRDNSKNTLYLQMNSLRAEDTAVYYCAKHDYSNYPYFDYWGQGTLVTVSSGGGGSGGGGSGGGGSEIVLTQSPGTLSLSPGERATLSCRASQGVRSDYLAWYQQKPGQALRLLIYGASSRATGIPDRFSGSGSGTDFTLTISRLEPEDFAVYHCQQYGSTPPTFGGGTKLEIK
notes: As m32

binding result (human CD70): binds
binding result [1]: no binding
B4: CD70-44 (scFv)
scFv: EVQLLESGGGLVQPGGSLRLSCAASGFTFSSYAMSWVRQAPGKGLEWVSVISDSGGITDFADSVKGRFIISRDNSRNTLYLQMNSLRAEDTAVYFCARHDYSNYFFFDYWGQGTLVTVSSGGGGSGGGGSGGGGSDIQMTQSPSSLSASVGDRVTITCRASQDISNYLNWYQQKSGKAPELLIYAASSLQSGVPSRFSGSGSGTDFTLTISSLQPEDFATYYCQQSYISPPTFGQGTKVEIK
notes: As m32

binding result (human CD70): binds
binding result [1]: no binding
B5: CD70-61 (scFv)
scFv: B4 scFv with I69T, V154I, D163S, S175P, E180K, Y184S, S229I, E240D
notes: As m32

binding result (human CD70): binds
binding result [1]: no binding
B6: CD70-67 (scFv)
scFv: B4 scFv with G44C, Q235C
notes: As m32

binding result (human CD70): binds
binding result [1]: no binding
B7: CD70-23 (scFv)
scFv: EVQLLESGGGLVQPGGSLRLSCAASGFTFSVYAMSWVRQAPGKGLEWVSTISDSGGSTFYADSVKGRFTISRDNSKNTLYLQMNRLRAEDTAVYYCARHDYSNYAYFDYWGQGTLVTVSSGGGGSGGGGSGGGGSEIVLTQSPGTLSLSPGERATLSCRASQSVRSSYLAWYQQKPGQAPRLLIYGASSRATGIPDRFSGSGSGTDFTLTISRLEPEDFAVYYCQQYGDLPFTFGPGTKVEIK
notes: As m32

binding result (human CD70): binds
binding result [1]: no binding
B8: CD70-27 (scFv)
scFv: EVQLLESGGGLVQPGGSLRLSCAASGFTFSTYAMSWVRQAPGKGLEWVSAISGSGGGTFYADSVKGRFTISRDNSKNTLYLQMNSLRAEDTAVYYCAKHDYSNYPYFDYWGQGTLVTVSSGGGGSGGGGSGGGGSEIVLTQSPGTLSLSPGERATLSCRASQSIRSNYLAWYQQKPGQAPRLLIYGASSRATGIPDRFSGSGSGTDFTLTISRLEPEDFAVYYCQQYGSSPFTFGPGTKVEIK
notes: As m32

binding result (human CD70): binds
binding result [1]: no binding
B9: CD70-32 (scFv)
scFv: B3 scFv with L11M, T31S, L50A, Y59F, K65E, A97T, L180P, L240V
notes: As m32

binding result (human CD70): binds
binding result [1]: no binding
B10: CD70-36 (scFv)
scFv: B8 scFv with T31S, K43Q, G57R, F59Y, I164V, S166G, N167S, G186S, S229D
notes: As m32

binding result (human CD70): binds
binding result [1]: no binding
B11: CD70-38 (scFv)
scFv: B8 scFv with L11V, G16R, T31S, G57R, K65E, F232P, T233S, P236Q
notes: As m32

binding result (human CD70): binds
binding result [1]: no binding
B12: CD70-40 (scFv)
scFv: B8 scFv with L11M, T31S, G57R, K65E, N167S, S229D, S230L, E241D
notes: As m32

binding result (human CD70): binds
binding result [1]: no binding
B13: CD70-24 (scFv)
scFv: B8 scFv with V12A, T31S, G57S, Y95F, I164V, N167S, S229D, S230L
notes: As m32

binding result (human CD70): binds
binding result [1]: no binding
B14: CD70-25 (scFv)
scFv: B8 scFv with L11M, T31S, G57R, K65E, I164V, S229D, S230L
notes: As m32

binding result (human CD70): binds
binding result [1]: no binding
B15: CD70-43 (scFv)
scFv: B8 scFv with L11V, G16R, T31S, G57R, K65E, I164V, S212N, F232P, P236G, E241D
notes: As m32

binding result (human CD70): binds
binding result [1]: no binding
B16: CD70-28 (scFv)
scFv: B3 scFv with G163S, D167N, L180P, S189N, H223S, S229I, T230S, L240V
notes: As m32

binding result (human CD70): binds
binding result [1]: no binding
B17: CD70-41 (scFv)
scFv: B8 scFv with L11M, T31S, G57R, K65E, A97T, I164V, N167S, S229D, S230L, E241D
notes: As m32

binding result (human CD70): binds
binding result [1]: no binding
B18: CD70-42 (scFv)
scFv: B3 scFv with D167S, L180P, S212N, H223Y, T230S, L240V, E241D
notes: As m32

binding result (human CD70): binds
binding result [1]: no binding
B19: CD70-66 (scFv)
scFv: EVQLLESGGGLVQPGGSLRLSCAASGFTFSSYAMSWVRQAPGQCLEWVSAISGSGGRTYYADSVKGRFTISRDNSKNTLYLQMNSLRAEDTAVYYCAKHDYSNYPYFDYWGQGTLVTVSSGGGGSGGGGSGGGGSEIVLTQSPGTLSLSPGERATLSCRASQSVRGSYLAWYQQKPGQAPRLLIYSASSRATGIPDRFSGSGSGTDFTLTISRLEPEDFAVYYCQQYGDSPFTFGCGTKVEIK
notes: As m32

binding result (human CD70): binds
binding result [1]: no binding
B20: CD70-74 (scFv)
scFv: B8 scFv with T31S, G57S, K65Q, M83V, K98R, I164V, S166G, S229Y, E241D
notes: As m32

binding result (human CD70): binds
binding result [1]: no binding
B21: CD70-54 (scFv)
scFv: B7 scFv with V31I, T50A, S52G, R85S, R98K, A105P, L169V, K239R, V240L
notes: As m32

binding result (human CD70): binds
binding result [1]: no binding
B22: CD70-39 (scFv)
scFv: EVQLLESGGGVVQPGRSLRLSCAASGFTFSSYAMSWVRQAPGKGLEWVSAISGSGGGTFYADSVEGRFTISRDNSKNTLYLQMNSLRAEDTAVYYCARHDYSNYPYFDYWGLGTLVTVSSGGGGSGGGGSGGGGSEIVLTQSPGTLSLSPGERATLSCRASQSVRSSYLAWYQQKPGQAPRLLIYGASSRATGIPDRFSGSGSGTDFTLTISRLEPEDFAVYSCQQYGDLPFTFGPGTKVEIK
notes: As m32

binding result (human CD70): binds
binding result [1]: no binding
B23: CD70-29 (scFv)
scFv: EVQLLESGGGLVQPGGSLRLSCAASGFNFASYAMSWVRQAPGKGLEWVSVISGSGGRTHYADSGKGRFTISRDNSKNTLYLQMNSLRAEDTAVYYCAKHDYSNYPYFDYWGQGTLVTVSSGGGGSGGGGSGGGGSEIVLTQSPGTLSLSPGERATLSCRASQSVRSSYLAWYQQKPGQAPRLLIFGASSRATGIPDRFSGSESGTDFTLTINRLEPEDFAVYYCEQYGNSPPTFGGGTKVEIK
notes: As m32

binding result (human CD70): binds
binding result [1]: no binding
B24: CD70-37 (scFv)
scFv: EVQLLESGGGLVQPGGSLRLSCAASGFTFSSYAMSWVRQAPGKGLEWVSAIGDGGGYTYYADSVKGRFTISRDNSKNTLSLLMNSLRAEDTAVYYCARHDYSNYPYFDYWGQGTLVTVSSGGGGSGGGGSGGGGSEIVLTQSPGTLSLSPGERATLSCRASQGVRSSYFAWYQQKPGQAPRLLIYGASTRATGIPARFSGSGSGTDFTLTISRLEPEDFAVYYCQQYGSSPPTFGQGTKVEIK
notes: As m32
